Experimental data published in US20210371514A1 (UNIVERSITY OF FLORIDA RESEARCH FOUNDATION, published 2021).
Each block holds one binder with its values, some of them ahead of it.

How the values were obtained:
[1] = biological target: T1, Corticotropin-releasing hormone (CRH); assay: direct CRH ELISA with lysate of transfected HEK 293t cells
T1 construct: 41-amino acid peptide derived from a 196-amino acid preprohormone (Genbank EAW86897.1); also called CRF; CRF peptide
T1 peptide: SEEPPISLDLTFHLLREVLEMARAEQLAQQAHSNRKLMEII
Description: ScFv constructs offer the advantage of being able to be delivered to the brain via AAV vectors. DNA constructs for ScFv's composed of the heavy and light variable regions of Antibody A and Antibody B, connected by a linker peptide, were generated. The amino acid sequences of the Antibody A and Antibody B scFvs are set forth in SEQ ID NOs: 22 and 23, respectively. DNA constructs were then transfected into Human Embryonic Kidney (HEK) 293t cells and incubated 48 hours. Cells were then lysed and analyzed for CRH binding via a direct CRH ELISA.

[2] = biological target: T1, Corticotropin-releasing hormone (CRH); assay: method not stated (FIG. 2, affinity of monoclonal antibodies to CRH)
[3] = biological target: T1, Corticotropin-releasing hormone (CRH); assay: Octet red BLI, CRF peptide against Antibody B at 300 nM to 0.412 nM; same value printed in all seven rows of the table [upper table, CRF peptide]
[4] = biological target: T1, Corticotropin-releasing hormone (CRH); assay: Octet red BLI, CRF peptide against Antibody B at 300 nM to 0.412 nM; kdis(1/s), same value printed in all seven rows of the table [upper table, CRF peptide]

- binding result [1]: binds
B1: ScFv comprising the heavy and light variable regions of Antibody A (scFv)
scFv: DGVQCEVKLVESGGGLVKPGGSLKLSCAASGFTFSSYAMSWVRQTPEKRLEWVASISIGGSTYYRDSVKGRCTISRDNAKNILYLQMRSLRSEDTAMYYCARRGMDYWGQGTSVTVSSGGGGSGGGGSGGGGSDIVITQDELSNPVTSGESVSISCRSSKSLLYKDGKTYLNWFLQRPGQSPQLLIYLMSTRASGVSDRFSGSGSGTDFTLEISRVKAEDVGVYYCQQLVEYPLTFGAGTKLELKRASGHHHHHHGSDYKDDDDK
notes: also called Antibody A scFv

- Kd [2]: < 0.001 nM
B2: anti-CRH antibody A (antibody, V domains shown)
VH: EVKLVESGGGLVKPGGSLKLSCAASGFTFSSYAMSWVRQTPEKRLEWVASISIGGSTYYRDSVKGRCTISRDNAKNILYLQMRSLRSEDTAMYYCARRGMDYWGQGTSVTVSS
VL: DIVITQDELSNPVTSGESVSISCRSSKSLLYKDGKTYLNWFLQRPGQSPQLLIYLMSTRASGVSDRFSGSGSGTDFTLEISRVKAEDVGVYYCQQLVEYPLTFGAGTKLELK
notes: Mouse monoclonal antibody raised with Peptide A (CRH 1-15)

- binding result [1]: binds
B3: ScFv comprising the heavy and light variable regions of Antibody B (scFv)
scFv: DEVQLQQSGPELVKPGVSMKISCKASGYSFTDSTMNWVKQSHGKNLEWIGLIHPDNGGTIYNQKFKGKATLTVHKSSSTAYMELLSLTSEDSAVYYCANGFAYWGQGTLVTVSAAKTTPPSVYPLAPGSAAGGGGSGGGGSGGGGSDVVMTQTPLSLPVSLGDQASISCRSSQSLLHSNGNTYLHWYLQKPGQSPELLIYKVSNRFSGVPDRFSGSGSGTDFTLKISRVEAEDLGVYFCSQSTHVPLTFGAGTKLELKGSHHHHHHGSDYKDDDDK
notes: also called Antibody B scFv

- Kd [2]: 20.9 nM
- Kd [3]: < 0.001 nM
- kon [3]: 97500 M⁻¹ s⁻¹
- koff [4]: < 1e-07 s⁻¹
B4: anti-CRH antibody B (antibody, V domains shown)
VH: EVQLQQSGPELVKPGVSMKISCKASGYSFTDSTMNWVKQSHGKNLEWIGLIHPDNGGTIYNQKFKGKATLTVHKSSSTAYMELLSLTSEDSAVYYCANGFAYWGQGTLVTVSA
VL: DVVMTQTPLSLPVSLGDQASISCRSSQSLLHSNGNTYLHWYLQKPGQSPELLIYKVSNRFSGVPDRFSGSGSGTDFTLKISRVEAEDLGVYFCSQSTHVPLTFGAGTKLELK
notes: Mouse monoclonal antibody raised with Peptide B (CRH 1-21), purified (QED bio); It was detected with anti-mouse IgG-HRP, and mouse IgG1 served as isotype control in vivo
